Columns and labels:
14-analyte M-DP panel = test: Pharmacodynamic M-DP score, 14-analyte panel (SomaLogic SOMAscan), clinical studies in RA; assay type: in vivo, human; details: for M-DP score mean difference ± SD, Good vs. No / M-DP score mean ± SD, DAS28-CRP response group Good / M-DP score mean ± SD, DAS28-CRP response group Moderate / M-DP score mean ± SD, DAS28-CRP response group No: response at week 24
From the text: Serum samples and data from eight interventional clinical studies with seven different active treatments for RA or placebo treatment were obtained and analyzed: sirukumab (anti-IL-6) and placebo treatments in SIRROUND-M (NCT01689532; Takeuchi T, et al. Arthritis Res Ther. 2018 Mar. 7; 20(1): 42), SIRROUND-D (NCT01604343; Takeuchi T, et al. Ann Rheum Dis. 2017 Dec.; 76(12): 2001-2008), and SIRROUND-T (NCT01606761; Aletaha D, et al. Lancet. 2017 Mar. 25; 389(10075): 1206-1217); sirukumab and adalimumab (anti-TNF-alpha) treatments in SIRROUND-H (NCT02019472; Taylor PC, et al. Ann Rheum Dis. 2018 May; 77(5): 658-666); golimumab (anti-TNF-alpha) treatment in GO-FURTHER (NCT00973479; Weinblatt ME, et al. Ann Rheum Dis. 2013 March; 72(3): 381-9); guselkumab (anti-IL-23p19), ustekinumab (anti-IL-12/IL-23p40), and placebo treatments in CNTO1275ARA2001 (NCT01645280; Cox JD, et al. […]); JNJ-40346527 (colony-stimulating factor-1 inhibitor) and placebo treatments in 40346527ARA2001 (NCT01597739; Genovese MC, et al. J Rheumatol. 2015 October; 42(10): 1752-60). Plasma samples were obtained from the RA-MAP TACERA study (Cope AP, et al. Nat Rev Rheumatol. 2018 January; 14(1): 53-60) before (baseline) and 6-months after initiation of conventional synthetic disease-modifying anti-rheumatic drugs (csDMARDs). Details of treatment dose groups, concomitant methotrexate use, and previous experience with csDMARDs and biologics are reported in Table 1. The studies were conducted in accordance with the Declaration of Helsinki. The study protocols were reviewed and approved by an independent ethics committee or institutional review board for each study center. Written informed consent was obtained from all patients before study entry. Additional study details and patient characteristics are available in the referenced publications for each study. For SIRROUND-D and SIRROUND-T studies, sets of serum samples from demographically-matched healthy controls were obtained from commercial sources (BioIVT, Westbury, N.Y.).
Serum samples from baseline (week 0) and the time points indicated in Table 1 were provided for quantification of 1189 serum analytes using the SomaScan v3.1 platform (SomaLogic, Boulder, Colo.; www.somalogic.com), with the exception of RA-MAP TACERA, for which plasma samples were analyzed for 1301 analytes using the SomaScan v3.2 platform. For some studies, a redacted dataset reporting data for a subset of the analytes was obtained. Relative fluorescence unit (RFU) data were sequentially normalized for hybridization controls (internal standards per samples), median signal across all samples (assumes same total protein concentration across sample set), and calibration controls (common sample standards across analysis plates). Samples failed quality control standards defined by Somalogic were excluded from analyses. The normalized RFU values were log2-transformed for subsequent analyses.
Changes in analyte expression levels were calculated for individual samples as the log2 transform of the ratio of the analyte level at the indicated time point (visit level) over the analyte level at baseline (baseline level) for a given subject, i.e., log 2(visit level/baseline level). Changes in RA disease-associated analytes per sample were summarized using a pharmacodynamic (PD) molecular disease profile (M-DP) score, defined as the median value of the log 2(visit level/baseline level) values for analytes in the defined M-DP analyte set. […] PD M-DP scores in the log 2(visit level/baseline level) scale can be transformed to percent change from baseline, using the transformation: (2^M-DP score−1)×100%.
Statistical analyses were performed on log2-transformed data, for either normalized Relative fluorescence unit (RFU) datasets or within-subject fold/baseline datasets. Significance of differences between groups was evaluated using General Linear Models, with t-tests when comparing two groups. […]

RA patients = details: RA patients; cited from earlier work
[1] = SIRROUND-D, score at week 4, sirukumab SC 50 mg q4w
[2] = SIRROUND-D, score at week 4, sirukumab SC 100 mg q2w
[3] = SIRROUND-D, score at week 24, sirukumab SC 50 mg q4w
[4] = SIRROUND-D, score at week 24, sirukumab SC 100 mg q2w
[5] = SIRROUND-H, score at week 4, sirukumab SC 50 mg q4w or adalimumab SC 40 mg q2w
[6] = SIRROUND-M, score at week 4, sirukumab SC 50 mg q4w
[7] = SIRROUND-M, score at week 4, sirukumab SC 100 mg q2w
[8] = SIRROUND-T, score at week 4, sirukumab SC 50 mg q4w
[9] = SIRROUND-T, score at week 4, sirukumab SC 100 mg q2w
[10] = SIRROUND-T, score at week 24, sirukumab SC 50 mg q4w
[11] = SIRROUND-T, score at week 24, sirukumab SC 100 mg q2w

B1: Sirukumab (antibody, chains of the INN, looked up, V domains shown)
VH: EVQLVESGGGLVQPGGSLRLSCAASGFTFSPFAMSWVRQAPGKGLEWVAKISPGGSWTYYSDTVTGRFTISRDNAKNSLYLQMNSLRAEDTAVYYCARQLWGYYALDIWGQGTTVTVSS
VL: EIVLTQSPATLSLSPGERATLSCSASISVSYMYWYQQKPGQAPRLLIYDMSNLASGIPARFSGSGSGTDFTLTISSLEPEDFAVYYCMQWSGYPYTFGGGTKVEIK
notes: a human anti-interleukin-6 (IL-6) monoclonal antibody
- M-DP score mean ± SD, All treated (14-analyte M-DP panel; [1]): −0.42 ± 0.34 log2 (fold/baseline)
- M-DP score mean ± SD, All treated (14-analyte M-DP panel; SIRROUND-D, score at week 4, sirukumab SC 50 mg q4w, listed as sirukumab): -0.42±0.34 log2 (fold/baseline)
- M-DP score mean difference ± SD, Good vs. No (14-analyte M-DP panel; [1]): −0.08 ± 0.33 log2 (fold/baseline)
- M-DP score mean ± SD, DAS28-CRP response group Good (14-analyte M-DP panel; [1]): −0.44 ± 0.32 log2 (fold/baseline)
- M-DP score mean ± SD, DAS28-CRP response group Moderate (14-analyte M-DP panel; [1]): −0.43 ± 0.36 log2 (fold/baseline)
- M-DP score mean ± SD, DAS28-CRP response group No (14-analyte M-DP panel; [1]): −0.36 ± 0.35 [44]+ log2 (fold/baseline)
- M-DP score mean ± SD, All treated (14-analyte M-DP panel; [2]): −0.48 ± 0.30 log2 (fold/baseline)
- M-DP score mean ± SD, All treated (14-analyte M-DP panel; SIRROUND-D, score at week 4, sirukumab SC 100 mg q2w, listed as sirukumab): -0.48±0.30 log2 (fold/baseline)
- M-DP score mean difference ± SD, Good vs. No (14-analyte M-DP panel; [2]): −0.27 ± 0.30 log2 (fold/baseline)
- M-DP score mean ± SD, DAS28-CRP response group Good (14-analyte M-DP panel; [2]): −0.50 ± 0.29 log2 (fold/baseline)
- M-DP score mean ± SD, DAS28-CRP response group Moderate (14-analyte M-DP panel; [2]): −0.51 ± 0.30 log2 (fold/baseline)
- M-DP score mean ± SD, DAS28-CRP response group No (14-analyte M-DP panel; [2]): −0.33 ± 0.32 [28]+ log2 (fold/baseline)
- M-DP score mean ± SD, All treated (14-analyte M-DP panel; [3]): −0.61 ± 0.40 log2 (fold/baseline)
- M-DP score mean ± SD, DAS28-CRP response group Good (14-analyte M-DP panel; [3]): −0.65 ± 0.39 log2 (fold/baseline)
- M-DP score mean ± SD, DAS28-CRP response group Moderate (14-analyte M-DP panel; [3]): −0.59 ± 0.39 log2 (fold/baseline)
- M-DP score mean ± SD, DAS28-CRP response group No (14-analyte M-DP panel; [3]): 0.06 ± 0.00 [1] log2 (fold/baseline)
- M-DP score mean ± SD, All treated (14-analyte M-DP panel; [4]): −0.69 ± 0.31 log2 (fold/baseline)
- M-DP score mean ± SD, DAS28-CRP response group Good (14-analyte M-DP panel; [4]): −0.69 ± 0.34 log2 (fold/baseline)
- M-DP score mean ± SD, DAS28-CRP response group Moderate (14-analyte M-DP panel; [4]): −0.75 ± 0.20 log2 (fold/baseline)
- M-DP score mean ± SD, DAS28-CRP response group No (14-analyte M-DP panel; [4]): −0.52 ± 0.37 [2] log2 (fold/baseline)
- M-DP score GMean decrease from baseline (14-analyte M-DP panel; SIRROUND-D, week 4, sirukumab 50 mg q4w): 21%
- M-DP score GMean decrease from baseline (14-analyte M-DP panel; SIRROUND-D, week 4, sirukumab 100 mg q2w): 25%
- M-DP score mean ± SD, All treated (14-analyte M-DP panel; [5]): −0.41 ± 0.30 log2 (fold/baseline)
- M-DP score mean difference ± SD, Good vs. No (14-analyte M-DP panel; [5]): −0.07 ± 0.30 log2 (fold/baseline)
- M-DP score mean ± SD, DAS28-CRP response group Good (14-analyte M-DP panel; [5]): −0.45 ± 0.33 log2 (fold/baseline)
- M-DP score mean ± SD, DAS28-CRP response group Moderate (14-analyte M-DP panel; [5]): −0.40 ± 0.30 log2 (fold/baseline)
- M-DP score mean ± SD, DAS28-CRP response group No (14-analyte M-DP panel; [5]): −0.38 ± 0.22 [12]+ log2 (fold/baseline)
- M-DP score mean ± SD, All treated (14-analyte M-DP panel; [6]): −0.51 ± 0.37 log2 (fold/baseline)
- M-DP score mean difference ± SD, Good vs. No (14-analyte M-DP panel; [6]): −0.40 ± 0.37 log2 (fold/baseline)
- M-DP score mean ± SD, DAS28-CRP response group Good (14-analyte M-DP panel; [6]): −0.59 ± 0.38 log2 (fold/baseline)
- M-DP score mean ± SD, DAS28-CRP response group Moderate (14-analyte M-DP panel; [6]): −0.46 ± 0.30 log2 (fold/baseline)
- M-DP score mean ± SD, DAS28-CRP response group No (14-analyte M-DP panel; [6]): −0.19 ± 0.25 [7] log2 (fold/baseline)
- M-DP score mean ± SD, All treated (14-analyte M-DP panel; [7]): −0.59 ± 0.29 log2 (fold/baseline)
- M-DP score mean ± SD, DAS28-CRP response group Good (14-analyte M-DP panel; [7]): −0.55 ± 0.27 log2 (fold/baseline)
- M-DP score mean ± SD, DAS28-CRP response group Moderate (14-analyte M-DP panel; [7]): −0.70 ± 0.34 log2 (fold/baseline)
- M-DP score mean ± SD, DAS28-CRP response group No (14-analyte M-DP panel; [7]): −0.51 ± 0.10 [2] log2 (fold/baseline)
- M-DP score mean ± SD, All treated (14-analyte M-DP panel; [8]): −0.34 ± 0.28 log2 (fold/baseline)
- M-DP score mean difference ± SD, Good vs. No (14-analyte M-DP panel; [8]): −0.06 ± 0.29 log2 (fold/baseline)
- M-DP score mean ± SD, DAS28-CRP response group Good (14-analyte M-DP panel; [8]): −0.35 ± 0.30 log2 (fold/baseline)
- M-DP score mean ± SD, DAS28-CRP response group Moderate (14-analyte M-DP panel; [8]): −0.37 ± 0.26 log2 (fold/baseline)
- M-DP score mean ± SD, DAS28-CRP response group No (14-analyte M-DP panel; [8]): −0.29 ± 0.26 [30]+ log2 (fold/baseline)
- M-DP score mean ± SD, All treated (14-analyte M-DP panel; [9]): −0.49 ± 0.35 log2 (fold/baseline)
- M-DP score mean difference ± SD, Good vs. No (14-analyte M-DP panel; [9]): −0.20 ± 0.34 log2 (fold/baseline)
- M-DP score mean ± SD, DAS28-CRP response group Good (14-analyte M-DP panel; [9]): −0.55 ± 0.35 log2 (fold/baseline)
- M-DP score mean ± SD, DAS28-CRP response group Moderate (14-analyte M-DP panel; [9]): −0.54 ± 0.35 log2 (fold/baseline)
- M-DP score mean ± SD, DAS28-CRP response group No (14-analyte M-DP panel; [9]): −0.35 ± 0.33 [39]+ log2 (fold/baseline)
- M-DP score mean ± SD, All treated (14-analyte M-DP panel; [10]): −0.41 ± 0.33 log2 (fold/baseline)
- M-DP score mean difference ± SD, Good vs. No (14-analyte M-DP panel; [10]): −0.12 ± 0.34 log2 (fold/baseline)
- M-DP score mean ± SD, DAS28-CRP response group Good (14-analyte M-DP panel; [10]): −0.46 ± 0.35 log2 (fold/baseline)
- M-DP score mean ± SD, DAS28-CRP response group Moderate (14-analyte M-DP panel; [10]): −0.41 ± 0.29 log2 (fold/baseline)
- M-DP score mean ± SD, DAS28-CRP response group No (14-analyte M-DP panel; [10]): −0.34 ± 0.31 [31]+ log2 (fold/baseline)
- M-DP score mean ± SD, All treated (14-analyte M-DP panel; [11]): −0.53 ± 0.36 log2 (fold/baseline)
- M-DP score mean difference ± SD, Good vs. No (14-analyte M-DP panel; [11]): −0.18 ± 0.35 log2 (fold/baseline)
- M-DP score mean ± SD, DAS28-CRP response group Good (14-analyte M-DP panel; [11]): −0.59 ± 0.38 log2 (fold/baseline)
- M-DP score mean ± SD, DAS28-CRP response group Moderate (14-analyte M-DP panel; [11]): −0.54 ± 0.37 log2 (fold/baseline)
- M-DP score mean ± SD, DAS28-CRP response group No (14-analyte M-DP panel; [11]): −0.41 ± 0.28 [40]+ log2 (fold/baseline)
- M-DP score GMean decrease from baseline (14-analyte M-DP panel; SIRROUND-T, week 4, sirukumab 50 mg q4w): 22%
- M-DP score GMean decrease from baseline (14-analyte M-DP panel; SIRROUND-T, week 4, sirukumab 100 mg q2w): 29%
- clinical efficacy in the underlying clinical studies (RA patients): clinically efficacious
